T1: hCXCR5 (human, UniProt P32302 1-372)
T1 construct: whole, on cells
T1 sequence (looked up): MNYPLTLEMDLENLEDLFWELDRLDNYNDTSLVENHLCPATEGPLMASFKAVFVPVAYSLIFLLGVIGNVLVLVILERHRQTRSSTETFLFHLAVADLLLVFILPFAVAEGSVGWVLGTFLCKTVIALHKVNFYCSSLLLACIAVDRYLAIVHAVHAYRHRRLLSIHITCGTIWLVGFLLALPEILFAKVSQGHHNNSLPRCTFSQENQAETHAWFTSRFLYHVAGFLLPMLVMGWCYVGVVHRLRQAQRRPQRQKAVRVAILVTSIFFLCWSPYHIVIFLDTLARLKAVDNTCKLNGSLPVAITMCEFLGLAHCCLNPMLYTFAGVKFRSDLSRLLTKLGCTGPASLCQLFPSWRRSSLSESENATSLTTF

T2: hCCR10 (human, UniProt P46092 1-362)
T2 construct: whole, on cells
T2 sequence (looked up): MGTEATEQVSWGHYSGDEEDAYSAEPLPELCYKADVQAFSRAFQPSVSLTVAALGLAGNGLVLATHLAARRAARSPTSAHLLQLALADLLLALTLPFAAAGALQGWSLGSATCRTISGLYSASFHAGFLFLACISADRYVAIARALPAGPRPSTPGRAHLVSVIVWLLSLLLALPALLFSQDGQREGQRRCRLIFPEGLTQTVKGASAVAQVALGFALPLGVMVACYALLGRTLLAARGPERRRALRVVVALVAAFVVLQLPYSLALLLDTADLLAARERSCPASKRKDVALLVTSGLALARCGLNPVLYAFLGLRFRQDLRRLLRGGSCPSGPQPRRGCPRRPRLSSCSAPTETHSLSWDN

T3: hCCR7 (human, UniProt P32248 25-378)
T3 construct: whole, on cells
T3 sequence (looked up): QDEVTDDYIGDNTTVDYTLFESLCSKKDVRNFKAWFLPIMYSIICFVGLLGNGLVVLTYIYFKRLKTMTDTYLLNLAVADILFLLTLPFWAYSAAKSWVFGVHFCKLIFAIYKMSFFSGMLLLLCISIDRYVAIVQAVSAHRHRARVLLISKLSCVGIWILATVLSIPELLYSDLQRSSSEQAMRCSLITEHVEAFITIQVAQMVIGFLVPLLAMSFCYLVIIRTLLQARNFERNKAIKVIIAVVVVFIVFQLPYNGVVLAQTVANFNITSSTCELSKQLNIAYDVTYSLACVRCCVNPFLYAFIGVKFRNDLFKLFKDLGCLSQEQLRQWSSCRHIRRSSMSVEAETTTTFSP


Legend:
hCXCR5 = molecular target: T1, hCXCR5; assay: flow cytometry, IgG 100 nM, cells over-expressing hCXCR5
Experimental: (§1) Cells over-expressing different GPCRs other than CXCR4 and several lines transfected to over-express CXCR4 (R1610-hCXCR4, Cf2Th-hCXCR4 and CHO-hCXCR4) were compared. Cultures were incubated with a test IgG at 100 nM in FACS buffer for 40 min at 4° C. Thereafter, cells were washed twice, stained with anti-human-Fc antibody-PE conjugate (Jackson Immunoresearch Laboratories Inc., West Grove, Pa.), washed twice in FACS buffer and then transferred to FIX buffer. Fluorescence intensities were measured by GUAVA PCA-96 at 425V (in triplicate).
(§2) The expression of GPCRs other than CXCR4 was confirmed using commercially available antibodies (positive controls). For example, a commercial anti-CXCR1 antibody was used as a positive control for confirming the expression of CXCR1 on the CXCR1-transfected CHO cells.

hCCR10 = molecular target: T2, hCCR10; assay: flow cytometry, IgG 100 nM, cells over-expressing hCCR10
Experimental: as §1, §2

hCCR7 = molecular target: T3, hCCR7; assay: flow cytometry, IgG 100 nM, cells over-expressing hCCR7
Experimental: as §1, §2

human CXCR4 [1] = molecular target: T4, human CXCR4 (human, UniProt P61073 1-352); assay: flow cytometry on Cf2-Th cells transfected with human CXCR4, IgG1 format
T4 construct: whole, on cells; also called hCXCR4; LESTR
Experimental: A typical protocol for the fluorescent flow cytometry-based assay was as follows. Ten microliter of a purified test IgG solution or buffer as a control were added to 10 microliter of a suspension containing approximately 30,000 Cf2-Th cells transfected to express human CXCR4. After incubation on ice for 40 min, cells were washed with FACS buffer (phosphate-buffered saline (PBS), pH7.4; 2% fetal calf serum, 0.1% sodium azide) to remove unbound antibodies. Ten microliter of a solution of phycoerythrin (PE)-conjugated mouse anti-human Fc monoclonal antibody (1/20 dilution; catalog number 12-4998-82, eBioscience Inc., San Diego, Calif.) were then added to the cells, and, after a 30-min incubation on ice, cells were washed twice and then formalin-fixed (FIX buffer: PBS, pH7.4; 0.5% formaldehyde). Fixed samples were analysed by fluorescent flow cytometry using a Guava-PCA96 instrument (EMD Millipore Chemicals, Merck KGaA, Darmstadt, Germany).

hCCR5 = molecular target: T5, hCCR5 (human, UniProt P51681 1-352); assay: flow cytometry, IgG 100 nM, cells over-expressing hCCR5
T5 construct: whole, on cells
Experimental: as §1, §2

human CXCR4 [2] = molecular target: T4, human CXCR4; assay: flow cytometry, IgG 10 µg/mL, CXCR4-expressing Ramos (RA1) cells
Experimental: Binding of test IgGs to CXCR4-expressing human lymphoma cells (Ramos; RA1, ATCC® CRL-1596™) was measured by fluorescent flow cytometry-based assay. Tumor cell staining was conducted as follows: human Fcγ receptors of RA1 cells were saturated by incubation at 4° C. for 30 minutes in PBS containing 2% human serum and 0.5 mM EDTA. Cells were then incubated at 4° C. for one hour with test IgGs or a human isotypic IgG1 kappa control (Coger Sarl, Paris, France) (both antibody types at 10 μg/mL). The cells were washed with PBS and further incubated for one hour at 4° C. with a goat F(ab′)2 fragment anti-human IgG (H+L)-PE (Beckman Coulter). The cells were washed twice with PBS and fixed with 0.5% formaldehyde in PBS for analysis by flow cytometry. The data were acquired using an eleven-color flow cytometer (LSRII, BD Biosciences), and the analyses were performed with the FlowJo flow cytometry analysis software (Tree Star Inc., Ashland, Oreg.). The living cells were selected using the side scatter (SSC) and the forward scatter (FSC); 10,000 events were acquired for each analysis. MFI values were recorded using the PE channel.

T4 sequence (P61073 whole entry): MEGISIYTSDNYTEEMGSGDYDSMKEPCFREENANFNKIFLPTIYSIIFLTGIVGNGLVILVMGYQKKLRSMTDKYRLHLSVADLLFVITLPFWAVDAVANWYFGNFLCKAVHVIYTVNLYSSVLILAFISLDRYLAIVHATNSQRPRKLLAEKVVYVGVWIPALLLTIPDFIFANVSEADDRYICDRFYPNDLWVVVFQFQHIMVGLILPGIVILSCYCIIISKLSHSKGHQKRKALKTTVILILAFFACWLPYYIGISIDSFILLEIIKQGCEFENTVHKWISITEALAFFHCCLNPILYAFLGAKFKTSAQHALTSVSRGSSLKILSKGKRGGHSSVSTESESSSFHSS
T5 sequence (P51681 whole entry): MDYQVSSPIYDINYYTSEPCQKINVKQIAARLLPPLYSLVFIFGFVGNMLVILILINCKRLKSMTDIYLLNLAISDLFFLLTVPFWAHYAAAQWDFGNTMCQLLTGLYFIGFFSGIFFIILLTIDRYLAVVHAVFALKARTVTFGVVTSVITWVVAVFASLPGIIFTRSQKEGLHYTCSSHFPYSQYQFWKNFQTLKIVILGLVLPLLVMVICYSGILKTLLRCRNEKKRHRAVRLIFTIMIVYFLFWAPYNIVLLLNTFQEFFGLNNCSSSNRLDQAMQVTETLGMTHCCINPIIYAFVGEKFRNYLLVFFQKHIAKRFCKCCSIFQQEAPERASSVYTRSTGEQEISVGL

Row | MFI (hCXCR5) | MFI (hCCR10) | MFI (hCCR7) | EC50 (human CXCR4 [1]) [µM] | MFI (hCCR5) | MFI (human CXCR4 [2]) | Binder
1 | 3 | 3 | 4 | < 0.01 | 3 | 429 | V62.1-R108H (antibody, human IgG1, V domains shown, Tested as an IgG (human IgG1 format); also called IgG1 V62.1 R108H) VH: not shown VL: EIVLTQSPGTLSLSPGERATLSCRASQSVSSSYLAWYQQKPGQAPRLLIYGASSRATGIPDRFSGSGSGTDFTLTISRLEPEDFAVYYCQQSDYSYPFTFGQGTKVEIKR
2 | 2 | 10 |  | < 0.01 | 8 | 440 | V62.1-R108H-m80 (antibody, human IgG1, V domains shown, Tested as an IgG (human IgG1 format); also called V62.1-H-m80; V62.1-R108H-m80-Wt) VH: EVQLLESGGGLVQPGGSLRLSCAASGFTISPYSITWVRQAPGKGLEWVSQINSYNGKTYYADSVKGRFTISRDNSKNTLYLQMNSLRAEDTAVYYCARQGKTRVYGYHWHGYGSTHALDYWGQGTLVTVSS VL: EIVLTQSPGTLSLSPGERATLSCRASQSVSSSYLAWYQQKPGQAPRLLIYGASSRATGIPDRFSGSGSGTDFTLTISRLEPEDFAVYYCQQSDYSYPFTFGQGTKVEIKR
3 | 4 | 4 | 3 | < 0.01 | 4 | 595 | V62.1 (antibody, human IgG1, V domains shown, Tested as an IgG (human IgG1 format; DP47 heavy and DPK22 kappa light frameworks) made in CHO-3E7 cells; also called IgG V62.1) VH: not shown VL: EIVLTQSPGTLSLSPGERATLSCRASQSVSSSYLAWYQQKPGQAPRLLIYGASSRATGIPDRFSGSGSGTDFTLTISRLEPEDFAVYYCQQSDYSYPFTFGQGTKVEIKR
4 | 2 | 2 | 2 | < 0.01 | 2 | 549 | V62.1-R108H-m47-m38 (antibody, human IgG1, V domains shown, Tested as an IgG (human IgG1 format); also called V62.1-H-m47-m38; IgG1 62.1-R108H-m47-m38) VH: EVQLLESGGGLVQPGGSLRLSCAASGFTFSSYAMSWVRQAPGKGLEWVSAISGSGGTRYADSVKGRFTISRDNSKNTLYLQMNSLRAEDTAVYYCARQGKTRVYGYHWHGYGSTHALDYWGQGTLVTVSS VL: EIVLTQSPGTLSLSPGERATLSCRASQSVSSSYLAWYQQKPGQAPRLLIYGASSRATGIPDRFSGSGSGTDFTLTISRLEPEDFAVYYCQQWSSDSVTFGQGTKVEIKR

— patent US20190389958A1 (MSM PROTEIN TECHNOLOGIES, published 2019)
